Data taken from patent publication US20060140858A1, “Drug pre-targeting by means of bi-specific antibodies and hapten constructs comprising a carrier peptide and the active agent(s)” (Immunomedics, Inc., priority 2002, published 2006).

Legend:
[1] = molecular target: carcinoembryonic antigen (CEA) (UniProt P06731); test: analytical size exclusion HPLC, radioiodinated bsAb with 10-20x molar excess of CEA
[2] = molecular target: Ac-Lys(DTPA)-Tyr-Lys(DTPA)-Lys(Tscg-Cys)-NH2 (IMP 192); test: in vivo, calculated from biodistribution in GW-39 tumor-bearing mice, 24 h after 99m-Tc-IMP-192, assuming one peptide per bsAb
[3] = molecular target: Ac-Lys(DTPA)-Tyr-Lys(DTPA)-Lys(Tscg-Cys)-NH2 (IMP 192); test: in vivo, calculated from biodistribution in GW-39 tumor-bearing mice, 30 min after 99m-Tc-IMP-192, assuming one peptide per bsAb
[4] = molecular target: Ac-Lys(DTPA)-Tyr-Lys(DTPA)-Lys(Tscg-Cys)-NH2 (IMP 192); test: in vivo, calculated from biodistribution in GW-39 tumor-bearing mice, 1 h after 99m-Tc-IMP-192, assuming one peptide per bsAb
[5] = molecular target: Ac-Lys(DTPA)-Tyr-Lys(DTPA)-Lys(Tscg-Cys)-NH2 (IMP 192); test: in vivo, calculated from biodistribution in GW-39 tumor-bearing mice, 3 h after 99m-Tc-IMP-192, assuming one peptide per bsAb
[6] = molecular target: carcinoembryonic antigen (CEA) (UniProt P06731); test: SE-HPLC, 125I-labeled bsMAb with an excess of CEA
[7] = molecular target: DOTA-Phe-Lys(HSG)-D-Tyr-Lys(HSG)-NH2 (IMP 241); test: in vivo pretargeting, GW-39 tumors, 3 h after 111In-IMP-241
[8] = molecular target: peptide containing a single HSG substituent and a thiol (mono HSG peptide); test: BIAcore, mono HSG peptide coupled to a CM-5 chip
[9] = molecular target: carcinoembryonic antigen (CEA) (UniProt P06731); test: immunoreactivity of 99mTc-hMN-14 Fab′; method and antigen not given

Sequence of carcinoembryonic antigen (CEA) (P06731 35-685 limits assumed): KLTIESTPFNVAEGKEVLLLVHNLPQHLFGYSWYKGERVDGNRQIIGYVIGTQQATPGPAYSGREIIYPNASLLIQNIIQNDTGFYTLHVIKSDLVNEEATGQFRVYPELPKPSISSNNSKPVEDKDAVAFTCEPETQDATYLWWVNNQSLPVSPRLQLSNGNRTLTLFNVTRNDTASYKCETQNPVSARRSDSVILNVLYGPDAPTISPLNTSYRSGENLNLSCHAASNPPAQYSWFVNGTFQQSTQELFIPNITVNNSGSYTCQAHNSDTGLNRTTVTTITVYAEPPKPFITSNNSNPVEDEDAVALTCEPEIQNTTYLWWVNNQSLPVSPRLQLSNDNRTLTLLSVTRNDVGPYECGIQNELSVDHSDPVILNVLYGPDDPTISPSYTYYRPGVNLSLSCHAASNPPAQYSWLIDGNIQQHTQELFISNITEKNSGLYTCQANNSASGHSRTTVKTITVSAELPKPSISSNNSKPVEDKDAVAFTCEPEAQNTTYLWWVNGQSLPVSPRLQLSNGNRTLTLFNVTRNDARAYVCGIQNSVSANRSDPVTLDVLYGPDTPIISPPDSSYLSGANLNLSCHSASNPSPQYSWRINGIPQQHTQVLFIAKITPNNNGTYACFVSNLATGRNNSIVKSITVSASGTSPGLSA

“hMN-14 × 734 (Fab × Fab) bi-specific antibody (bispecific antibody)” was tested, and the percent bound [1] was 90%, the % saturation of the available DTPA binding sites on the tumor bound bsAb [2] was 28% and the % saturation of the available DTPA binding sites on the tumor bound bsAb [3] was 25.4%. The % saturation of the available DTPA binding sites on the tumor bound bsAb [4] was 25.8% and the % saturation of the available DTPA binding sites on the tumor bound bsAb [5] was 25%.

Work on “hMN-14 × m679 F(ab′)2 bsMAb (bispecific antibody)” yielded a percent of radiolabeled product shifting to a higher molecular weight [6] greater than 90%, a ratio of the % ID/g of the peptide compared to the bsMAb in the tumor [7] of 3.9 and a Kd [8] of 1.5 nM.

B1: humanized MN-14 (hMN-14) Fab′-SH, 99mTc-labeled (Fab, INN chains, looked up, V domains shown)
VH: EVQLVESGGGVVQPGRSLRLSCSASGFDFTTYWMSWVRQAPGKGLEWIGEIHPDSSTINYAPSLKDRFTISRDNAKNTLFLQMDSLRPEDTGVYFCASLYFGFPWFAYWGQGTPVTVSS
VL: DIQLTQSPSSLSASVGDRVTITCKASQDVGTSVAWYQQKPGKAPKLLIYWTSTRHTGVPSRFSGSGSGTDFTFTISSLQPEDIATYYCQQYSLYRSFGQGTKVEIK
modifications: Fab′ 99mTc label
Molecule B1 has an immunoreactive fraction [9] of 92%.
